Key:
[1] = Hepatotoxicity and nephrotoxicity markers (AST, ALT, BUN) in COLO205 tumor-bearing mice; conditions: final day of observation
Method: As a comparison group, a group (oxaliplatin administration group) was set by administering 33 μL of oxaliplatin into the tail vein at a dose of 5 mg/mL 3 times every other week. […] Each group contained 6 mice, and observation of general condition and measurement of the body weight and tumor volume were performed until the end of the observation period. In the Figure, the vertical axis indicates mean tumor volume of each group, and the horizontal axis indicates the number of days elapsed since administration of each medicament. […] On the final day of observation, the mice were autopsied, and the blood was collected. The collected blood was analyzed by a dry chemistry analyzer (SPOTCHEM D-02, manufactured by ARKRAY, Inc.) by measuring aspartate aminotransferase (AST), alanine aminotransferase (ALT), and blood urea nitrogen (BUN) in plasma by using SPOTCHEM D Total-A2 (manufactured by ARKRAY, Inc.), and hepatotoxicity and nephrotoxicity were evaluated.

[2] = test system: tumor derived from COLO205 cells; assay: Accumulation in tumor, PET imaging in COLO205 tumor-bearing mice; format: in vivo, mouse
Method: COLO205 cells of EGFR high expression human colorectal cancer-derived cell line purchased from ATCC were suspended in DMEM medium and administered subcutaneously to the flanks of 5-week-old female BALB/c nu/nu (Charles River Laboratories Japan, Inc.) at 5×10^6 cells to prepare tumor-bearing mice. The tumor volume was allowed to grow to about 100 to 250 mm^3, and the radioconjugate produced as described in Example 7 was administered at a dose of about 6 MBq/mouse (each n=3) into the tail vein. After 72 hr and 120 hr from the administration, images were taken using a small animal PET imaging device under conditions similar to those in Evaluation 2.
The arrow in the image indicates a tumor derived from COLO205 cells used for tumor-bearing. When VOI was set for the tumor and muscle (femoral muscle) in each imaged mouse and the SUV (Standard Uptake Value) was calculated, the value was 3.18±0.72 for tumor and 0.48±0.02 for muscle at 72 hr after administration and 4.38±0.96 for tumor and 0.48±0.05 for muscle at 120 hr after administration. Using the values, the radioactivity accumulation ratio of tumor to muscle was calculated. As a result, the ratio was 6.67±1.52 at 72 hr after administration and 9.19±2.02 at 120 hr after administration, and a higher level of radioactivity was accumulated in the tumor as compared with other organs and EGFR positive tumor could be depicted.

[3] = test system: COLO205 cells, HCT-116 cells, SW48 cells, MIAPaCa-2 cells, NCI-H358 cells; assay: Cytotoxic effect on cultured cells, overall statement; format: cell-based, human; conditions: 120 hours; up to maximum concentration added (antibody concentration 156 nM)
Method: In addition, unlabeled panitumumab was added to an antibody concentration the same as that of the sample at each radioactivity concentration, and the cells were cultured. After 120 hours from the sample addition, CellTiter-Glo (registered trademark) 2.0 Cell Viability Assay (manufactured by Promega) was added to the medium, chemiluminescence was detected using a microplate reader (SpectraMax i3x, manufactured by Molecular Devices, LLC), and the number of viable cells was calculated. The ratio of the number of viable cells under conditions where no antibody was added to the calculated number of viable cells was taken, and the cytotoxic effect was evaluated. Furthermore, the obtained results were fitted by a […] regression method using GraphPad Prism 7 (manufactured by GraphPad Software), and EC50 was calculated.

[4] = test system: SW48 cells and COLO205 cells; assay: Apoptosis induction, Caspase-Glo 3/7 Assay; format: cell-based, human; conditions: 72 hours, both cells
Method: In addition, unlabeled panitumumab was added to an antibody concentration the same as that of the group at each radioactivity concentration, and the cells were cultured. After 72 hours from the sample addition, an apoptosis assay kit (Caspase-Glo (registered trademark) 3/7 Assay, manufactured by Promega) was added, and Caspase-3/7 activity was detected using a microplate reader.

## O=C1[O][Pt]2([NH][C@@H]3CCCC[C@H]3[NH]2)[O]C1=O [oxaliplatin, reference compound]
[1]
  hepatotoxicity and nephrotoxicity (AST, ALT, BUN in plasma): no hepatotoxicity or nephrotoxicity was confirmed

## Example 7: Complex with panitumumab using 89Zr-labeled DOTAGA-DBCO
[2]; 72 hr after administration
  SUV (Standard Uptake Value), muscle (femoral muscle): 0.48±0.02
[2]; 120 hr after administration
  SUV (Standard Uptake Value), muscle (femoral muscle): 0.48±0.05
  SUV (Standard Uptake Value), tumor: 4.38±0.96
[2]; about 6 MBq/mouse tail vein, 72 hr after administration
  SUV (Standard Uptake Value), tumor: 3.18±0.72

## panitumumab [unlabeled panitumumab, reference compound]
[3]
  cytotoxic effect: no cytotoxic effect was confirmed
[4]
  apoptosis induction (Caspase-3/7 activity): apoptosis induction was not confirmed
